Experimental data published in article doi:10.1101/2023.01.19.524411 (bioRxiv, 2023).

Biological target: the molecule itself
Test: native gel or EMSA

B1: flag-tagged STING (stimulator of interferon genes) (natural protein, UniProt Q3TBT3 1-378, looked up)
chain: MPYSNLHPAIPRPRGHRSKYVALIFLVASLMILWVAKDPPNHTLKYLALHLASHELGLLLKNLCCLAEELCHVQSRYQGSYWKAVRACLGCPIHCMAMILLSSYFYFLQNTADIYLSWMFGLLVLYKSLSMLLGLQSLTPAEVSAVCEEKKLNVAHGLAWSYYIGYLRLILPGLQARIRMFNQLHNNMLSGAGSRRLYILFPLDCGVPDNLSVVDPNIRFRDMLPQQNIDRAGIKNRVYSNSVYEILENGQPAGVCILEYATPLQTLFAMSQDAKAGFSREDRLEQAKLFCRTLEEILEDVPESRNNCRLIVYQEPTDGNSFSLSQEVLRHIRQEEKEEVTMNAPMTSVAPPPSVLSQEPRLLISGMDQPLPLRTDLI
Q: B1 was tested. Which “stoichiometry N” value did it give?
A: 2
